Assay: label from the status in PepcDB records
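Further: failed if final PepcDB status was selected cloned or expressed and not failed if soluble or beyond.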

Row | Sequence | protein production
1 | MSKILLTGASGYIGSHLKNKLKKDHEVIAISRNTHNKTDEENVTWKSADLFDLDEITKVMKDVDTAIYLVHSMMPSAKLTQASFEDMDALLADNFARAAQKQGVKHIVYMSGLIPENDELSAHLRSRLECEKILGDYGIPVSTLRAGLIIGAKGSSYPILKRLVKRLPAMVLPSWAYNKIAPVAIDDVIDGLAALVNRTPKDNEAIDITGPEVMNYKTLIQRTANVLDKRLPMLDLPIIPIIVSRYWVQLISNVPKEMVYPLMNSLTHDMVPHRKRVVSNLSVGNITFEDSVKRALREEQKTSKKKSDSKNSQSFGRMHQEIKDVRAITRFKIPEGYSIKDVTKEYAKFINNITLHLVKGTINEREFNMNLPFINKFILKMERDEADSTEDMVVYNIVGGDLAHSNDGGNARFEFRRIRNTNEGIIALQEYEPTLPWVVYKLTQAKAHKTVMNIFKNKMARLAQQKNVKDETYMSNRVTIGVTVASAFVIGSAVGFQLFKKHQIKKNTMSNAEL | failed
2 | SDFSRNLYDIGEQLDSEDLASLKFLSLDYIPQRKQEPIKDALMLFQRLQEKRMLEESNLSFLKELLFRINRLDLLITYLNTRKEEMERELQTPGRAQISAYRVMLYQISEEVSRSELRSFKFLLQEEISKCKLDDDMNLLDIFIEMEKRVILGEGKLDILKRVCAQINKSLLKIINDYEEFSKGEELCGVMTISDSPREQDSESQTLDKVYQMKSKPRGYCLIINNHNFAKAREKVPKLHSIRDRNGTHLDAGSHSVAQAGVQWCDLGSLQPPPPWFG | not failed
3 | MESLTQYIPDEFSMLRFGKKFAEILLKLHTEKAIMVYLNGDLGAGKTTLTRGMLQGIGHQGNVKSPTYTLVEEYNIAGKMIYHFDLYRLADPEELEFMGIRDYFNTDSICLIEWSEKGQGILPEADILVNIDYYDDARNIELIAQTNLGKNIISAFSN | not failed
4 | MNMDFNLFMNDIVRQARQEITAAGYTELKTAEEVDEALTKKGTTLVMVNSVCGCAGGIARPAAYHSVHYDKRPDQLVTVFAGQDKEATARARDYFEGYPPSSPSFAILKDGKIMKMVERHEIEGHEPMAVVAKLQEAFEEYCEEV | not failed
5 | MKRAYVLLIGLSMLLISLIVPFPLALSFVILAGLFIAHFSKMEEKEVNMIITATVSLFIGLLGGLLGSMIHHNISSTWTLLSAHGGLFLIALIGYFFMVLILMTLGSMIDKVISKARSKSL | failed
6 | MGHHHHHHSHMACYIYQLPSWVLDDLCRNMDALSEWDWMEFASYVITDLTQLRKIKSMERVQGVSITRELLWWWGMRQATVQQLVDLLCRLELYRAAQIILNWKPAPEIRCPIPAFPDSVK | failed
7 | MKKRKLLAVTLLSTILLNSAVPLVVADTSLRNNTSSTDQPTTADTATDAESETAKKDKKSKETASQHDTQKDHKPSHTHPTPPSNDTKQTDQASSEATDKPNKDKNDTKQPDSSDQSTSSPKDQSSQKESQNKDGRPTPSPDQQKDPTPDKTPEKSADKIPEKATEKTPEPNRDAPKPIQPPLAAAAPVFIPWRESDKDLSKLKPSSRSSAAYVRHWTGDSAYTHNLLSRRYGITAEQLDGFLNSLGIHYDKERLNGKRLLEWEKLTGLDVRAIVAIAMAESSLGTQGVAKEKGANMFGYGAFDFNPNNAKKYSDEVAIRHMVEDTIIANKNQTFERQDLKAKKWSLGQLDTLIDGGVYFTDTSGSGQRRADIMTKLDQWIDDHGSTPEIPEHLKITSGTQFSEVPVGYKRSQPQNVLTYKSETYSFGQCTWYAYNRVKELGYQVDRYMGNGGDWQRKPGFVTTHKPKVGYVVSFAPGQAGADATYGHVAVVEQIKEDGSILISESNVMGLGTISYRTFTAEQASLLTYVVGDKLPRP | failed
8 | AATDIHVHFRTPGETEKEDFGSGSLSAIYGGTTYVMDMPNNRFPITDYNAFGDKLGSIDSTSFADFSLYSMETGKNAMLLDRRSIGLKVYLGGSTNSTGTEVIEEGDIRKINEMNYPVVFHGESERCLKTHQMEEKNLRDHNLARPIDCEIEAAKYVSGLDIKTKIMAHVSSPDVTGNFLREVTPHHLLLNDEMPLGSFGKVNPPLRDSRTQKRLLDDYISGKFDILSSDHAPHTEDDKREFEFAKSGIIGVETRVPLFLALAQKKIVPLDVLYRTAIENPPSIFGIKKGKIEIGYDADFMVIDFTSMKRINDNRLHSKFPVSPFNGMDAI | failed
9 | MTAYWIAHVTIHDMQQYQEYMKLAPAAFQKYGAKFLARGGESVCVEGQAYQRHVIIEFPDLATAQQCYDSEEYKQARLAREGCADVMISFVEGLPTN | failed
10 | MQRISVIVPMYNEARHITRTLDSVLRAARAATLDCELIVVDNGSTDQGPQRARELGARVLLCPGIGIGALRNRGAAVATGDSLAFLDADIEVPGNWLQLWQQAHAEQRAEVFALDCAAPASAPWFARAWQRRSLAGDPQPRLLPWMPTPNLCLQRAWFERVGGFNEQLRTGEDKDFGLRLHAAGARQLSLPQPQVLHWGYEASWAEWAGKERWRQGSHVQLLKGSGLSLRLLRFPLLCLACALLSLVALLCLLAGLPGAAGLCLLLGALAPLALAVRQGLRQRDPLFVLQLWLLHWVRLHLGALALVQALFNRSAERPDRG | failed
11 | MNCIIAQSGGPTSVINASVYGLVKANKKLNLYENVYGGLNGIEGILNKKIINLSDLDELQLERFKNSPASGLGSCRYKLKPLSESEDEYLKLLDILNSLNIKAFFYVGGNDSMDTTAKLNAFAKAKNIDIKFFGIPKTIDNDLMHTDHTPGFGSAAKFISTAVLETYLDSKVYTNNGIFIIETMGRDTGWLAASGALATINGNKCADLVYLPERAFSVQSFLTDVARIFKEKKHVYIVASEGLKDENGKFLTETAPNDDSFGHAQLGGVGAYLKNLIIQASITHRVKSLELNTLQRCSMHASSKIDVNEAVMVGQAALEASINSEGGYMVAIRRDSSFPYKSSTFLIEADKIANNIKYFPSEWINEEGNNITEEGLLYLKPLISDFEDRDSLPLYHSFVL | failed
12 | MSRTILQPGQIEAAANIPPHLHQPSRDLFARRGERLLQLAEGHPMGDYLRLVAGLCRLQQALLDNPPALAPLDPERLRKSREHGMPPLAYDLLVREGAWLPWLDALLAGYPAPANAAVGAALEQLREAEEGQRKAWAIALLSGQFDLLPAALVPFLGAALQVAWSHWLLGLEEGAVVETESRTLCPACGSPPMAGMIRQGGKETGLRYLSCSLCACEWHYVRIKCSHCEESKHLAYLSLEHDGQPAEKAVLRAETCPSCQGYLKQFYLEFDRHADALADDLASLALDMRLAEDGYLRRSPNLLLAPGGE | not failed
13 | MEAARSMTFSECAALYIKAHRSSWKNTKHADQWTNTIKTYCGPVIGPLSVQDVDTKLIMKVLDPIWEQKPETASRLRGRIESVLDWATVRGYREGDNLEHHHHHH | failed
14 | MGIFEPFRAIGYITSTVPFSVQRLGTETFVTVSVGKAFQIYNCAKLNLVIISPQLPKKIRALASYRDYTFVAFGNEIAVFRRAHQVATWSKHVAKVDLLLVFGEHVLSLDVEGNMFIWAFKGIEEHLAPIGNLQLTGKFTPTSIVHPDTYLNKVLVGSQEGPLQLWNINTKKMLYQFKGWGSSVTSCVSSPALDVVAIGCADGKIHVHNIKLDEEIVTFEHASRGAVTALSFSTDGRPLLASGGSFGVISIWNLNKKRLQSVIRDAHDSSIISLNFLANEPVLMSASADNSLKMWIFDTNDGDPRLLRFRSGHSAPPLCIRFYSNGRHILSAGQDRAFRLFSVIQEQQSRELSQRHISRRAKKLRLKEEELKLKPVVSFDCAEIRERDWCNVVTCHMDTAEAYVWRLQNFVLGEHILKPCPENPTPIKACAISACGNFAVVGTAGGWIERFNLQSGISRGSYFDMSEKRRYAHDGEVIGVACDSTNTLMISAGYHGDLKVWDFKKRELKSQWDVGCSLVKIVYHRVNGLLATVADDFVIRLYDVVTLKMVREFRGHTDRITDLCFSEDGKWVISSSMDGSLRIWDVILAKQIDGVHVDVPITALSLSPNMDVLATAHSDQNGVYLWVNQSMFSGLPSVESYASGKDVVNVKLPSVSALTSSEADDDMDRQVLENSEALQASSFSISQKQIPELVTLSLLPKSQWQSLINLDIIKARNKPIEPPKKPEKAPFFLPSIPSLSGDILFKANDSEADGENEENNKKDQNSMKNFDALESPFSKHLKSSWDSKHFLDFTNYMKSLSPSALDMELRMLEIIDEDVEEELIKRPEFILIGQLLDYFINEVSCKNDFEFMQAVVKLFLKIHGETIRCHPSLQEKAKKLLETQSLVWQKMEKLFQSTRCIVTFLSNSQF | failed
15 | MSLNKQDGENTLQHEKSSSFGYWCSPSPEQLERLSLKQLAAVSNFVIGRRGYGCITFQHDVDLTAFTKSFREELFGKIVIFRSSKTVEVYPDEATKPMIGHGLNVPAIITLENVYPVDKKTKKPMKDTTKFAEFQVFDRKLRSMREMNYISYNPFGGTWTFKVNHFEGHHHHHH | not failed
16 | MVIIVSMKANGFFDEQSSLKKSKIGLNLVWMFSLGHIFLITLSNVLVQYPFDMMGFHTTWGAFTYPAIFILTDLTTRIATANKARKIIMLSMTPGLILSYLVASYIEAGNNLNESGLSVLHLMPLRIALACFIAYVVGQLLDVAVFQRYRNRPAWWLAPTLSAVAGNFIDTALFFTIAFYHCSNPFLSQNWPEIAMVDVFFKIMISLIAFVPVYGLVLSILGIKTTNKLMV | failed
17 | MAPLRTKAVEVLQRNSRGAFTVPAHGLYPYQWLWDSAFIALGWTQVDWERAWQELLCLFDYGQGPDGMLPHIVFHEQSRDYFPGPDVWGREARAQPATSGITQPPVVATVVRYLYEKDPDRDRARERARYLFPKLLAFHRWLYHARDPYRTGLVVIVHPWESGMDNSPAWDKPLSRVPVENLPPYERRDVKHVNPEERPRKEDYDRYLSLLYLFRRLEYDPREIYRQSPFKVVDVGFNAILQRANRDLYALAVLLQEDPYEIEEWIVRGEVGLEALWDREAGFYFSWDLVAGEPIAVKTSAGFLPLFAGTPHQGRASLLAQEAERWGEKARYLLPSVDPTSPFFEPGRYWRGPVWINVNWMVAEGFRDYGFAALAARLKADALALMEREGFREYYDPLTGQGRGGEGFSWSAALALFWTR | not failed
18 | MKIDGETRSARKDREIIQAATAAFISKGYDGTSMEEIATKAGASKQTVYKHFTDKETLFGEVVLSTASQVNDIIESVTTLLSEAIFMEGGLQQLARRLIAVLMDEELLKLRRLIIANADRMPQLGRAWYEKGFERMLASTASCFQKLTNRGLIQTGDPYLAASHLFGMLLWIPMNEAMFTGSNRRSKAELERHADASVEAFLAVYGVQPK | not failed
19 | MDVKQTLEKAIALRQNKRYQESNAILVTLCKEHAHDPQILYQCGWSFDVLGLEAQAVPYYEKAIASGLQGKDLAECYLGLGSTFRTLGEYRKAEAVLANGVKQFPNHQALRVFYAMVLYNLGRYEQGVELLLKIIAETSDDETIQSYKQAILFYADKLDETWKALEHHHHHH | not failed
20 | MALMTNKTRALLIGGHGKVALLATPMLIDASVQVTSMYRNPDHRSEIEALGATTLERDVTTLSVEDWADLLKDFDVVVWSAGNGGKNGADATYAIDRDAAIASIDGAASLGEKAPRYIMVSYIGSSTHTIDPSASFYPYAESKKAADEHLSSTNLDYLILAPAALTLDEVNGVEVIADTNEAAAGRTTSRVLVAEVITEFVVRDFPQTRVLPFVDGESPVSSIS | failed
21 | MTRLNELWELYFQTLDKSTSWTFTKESFYNRYLKEPLGKKKLDSIQEHHIMAIIRHLQAEGMATRTVNTTLEILRPLFDFAIKNKALRDNPTRFIVLKKDNLEHHHHHH | failed

From a protein production outcome set (Wang et al. 2014)
